Numbering of substitutions follows the chain as printed.

In assay [1] the target is T1, HBVc18pMHC, biotinylated recombinant complex (HLA-A*0201: HBVc18) (human; Hepatitis B virus).
T1 construct: also called HBVc18 peptide-MHC complex
Put plainly: SPR (ProteOn).

The target in assay [2] is NYESOAApMHC (HLA-A*0201:NYESO1-9VAA), biotinylated recombinant complex (human). Put plainly: SPR (ProteOn), biotinylated pMHC on NLC chip.
Assay [3] concerns the target EBNApMHC (HLA-A*0201:EBNA-1), biotinylated recombinant complex (human; Epstein Barr virus). Put plainly: SPR (ProteOn), biotinylated pMHC on NLC chip.
Assay [4] has as its target T2, NYESOpMHC (HLA-A*0201:NYESO1-9V), biotinylated recombinant complex (human).
T2 construct: also called NY-ESO-1 peptide-MHC complex
Put plainly: SPR (ProteOn), biotinylated pMHC on NLC chip, PBS with Tween.

Assay [5] addresses T3, MAGEA3pMHC, biotinylated recombinant complex (HLA-A*0101, MAGE-A3 peptide) (human).
T3 construct: also called MAGE-A3 peptide-MHC complex
The experiment in a line: ribosome display selection, crude extract HTRF. For orientation: TR-FRET usually uses a lanthanide donor and a delayed reading to cut background.

Assay [6] has as its target NYESOpMHC on T2 cells pulsed with NY-ESO-1-9V (157-165) peptide.

B1: DARPin® protein comprising SEQ ID NO 220 (linked to a CD3-specific binding agent) (designed binder)
chain: GSDLGHKLLFAASAGQDDEVRILLAAGADVNAKDESGQTPLHYAAFVGHLEIVEVLLKAGADVNAKDQWGHTPLHVAATFGHLEIVEVLLKAGADVNAQDTWGTTPADLAATFGHEDIAEVLQKAA
B1: in assay [1], the Kd stood at 4.65 nM.

B2: DARPin® protein comprising SEQ ID NO 224 (linked to a CD3-specific binding agent) (designed binder)
chain: B1 chain with H6F, F10E, S13L, A14E
As to B2, in assay [1], the Kd came out at 0.736 nM.

B3: DARPin® protein comprising SEQ ID NO 228 (linked to a CD3-specific binding agent) (designed binder)
chain: B1 chain with H6W, F10H, S13T, A14T
As for B3, in assay [1], the dissociation constant (Kd) turned out to be 4.72 nM.

B4: DARPin® protein comprising SEQ ID NO 229 (linked to a CD3-specific binding agent) (designed binder)
chain: B1 chain with H6S, F10Y, S13I, A14S, E120V
As to B4, the Kd in assay [1] came out at 1.03 nM.

B5: DARPin® protein #28 (designed binder)
chain: MRGSHHHHHHGSDLGQKLLKAAALGQDDEVRDLLKAGADVNAKDYQGQTPLHLAAWTGHLEIVEVLLKAGADVNAKDHFGYTPLHIAAHFGHLEIVEVLLKAGADVNAQDAAGQTPADLAAAEGHEDIAEVLQKAA
Consider B5, for which the binding result in assay [2] is “no binding”; in assay [3], “no binding (tested: 3.7 nM to 300 nM, or 250 nM single trace)”. In addition, the Kd in assay [4] worked out at 2.57 nM.

B6: DARPin® protein comprising SEQ ID NO 225 (linked to a CD3-specific binding agent) (designed binder)
chain: GSDLGIKLLFAANFGQDDEVRILLAAGADVNAKDQSGRTPLHLAALWGHLEIVEVLLKAGADVNAKDVFGLTPLHIAATFGHLEIVEVLLKAGVDVNAQDYTGHTPADLAALIGHEDIAEVLQKAA
As to B6, in assay [1], the Kd stood at 9.23 nM.

B7: DARPin® protein #26 (designed binder)
chain: MRGSHHHHHHGSDLGEKLLFAAFIGQDDEVRILLAAGADVNAKDEYGHTPLHAAAQHGHLEIVEVLLKAGADVNAKDQFGLTPLHIAAIFGHLEIVEVLLKAGADVNAQDHAGYTPADLAAWQGHEDIAEVLQKAA
Take B7: the binding result is recorded as “no binding” in assay [2] and “no binding (tested: 3.7 nM to 300 nM, or 250 nM single trace)” in assay [3]. In addition, the Kd in assay [4] stood at 1.29 nM.

B8: SEQ ID NO 160 (designed binder)
chain: GSDLGKKLLQAAQAGQDDEVRELLKAGADVNAKDEWGRTPLHVAAYWGHLEIVEVLLKAGADVNAKDSFGLTPLHLAAIEGHLEIVEVLLKAGADVNAQDQQGATPADLAALLGHEDIAEVLQKAA
Consider B8, for which, in assay [5], the binding result is “binds”.

B9: DARPin® protein comprising SEQ ID NO 221 (linked to a CD3-specific binding agent) (designed binder)
chain: GSDLGQKLLLAAAIGQDDEVRILLAAGADVNAKDESGHTPLHYAAHVGHLEIVEVLLKAGDVNAKDHRGFTPLHVAAQIGHLEIVEVLLKAGADVNAQDNWGITPADLAAWWGHEDIAEVLQKAA
As for B9, the Kd in assay [1] came out at 0.369 nM.

B10: SEQ ID NO 172 (designed binder)
chain: GSDLGKKLLQAARAGQLDEVRELLKAGADVNAKDEWGATPLHLAAYAGHLEIVEVLLKAGADVNAKDRWGLTPLHVAAVEGHLEIVEVLLKAGADVNAKDIEGETPLHIAAFTGHLEIVEVLLKAGADVNAQDKSGKTPADLAARAGHQDVAEVLQKAA
As to B10, in assay [5], the binding result was “binds”.

B11: SEQ ID NO 169 (designed binder)
chain: GSDLGKKLLQAARAGQLDEVRELLKAGADVNAKDHWGKTPLHLAAYEGHLEIVEVLLKAGADVNAKDLFGLTPLHLAAIEGHLEIVEVLLKAGADVNAKDSFGYTPLHVAAQVGHLEIVEVLLKAGADVNAQDKSGKTPADLAARAGHQDIAEVLQKAA
As for B11, in assay [5], the binding result is “binds”.

B12: DARPin® protein #20 (designed binder)
chain: MRGSHHHHHHGSDLGKKLLQAARAGQLDEVRELLKAGADVNAKDQSGATPLHLAAFRGHLEIVEVLLKAGADVNAKDAAGYTPLHIAAVYGHLEIVEVLLKAGADVNAKDSAGETPLHLAAYAGHLEIVEVLLKAGADVNAQDKSGKTPADLAARAGHQDIAEVLQKAA
As to B12, the EC50 in assay [6] was 20.6 nM. Moreover, the binding result in assay [2] was “no binding”; in assay [3], “no binding (tested: 3.7 nM to 300 nM, or 250 nM single trace)”. Moreover, the Kd in assay [4] was 5.79 nM.

B13: SEQ ID NO 165 (designed binder)
chain: GSDLGEKLLQAALEGQDDEVRELLKAGADVNAKDLVGWTPLHIAAYRGHLEIVEVLLKAGADVNAKDWVGLTPLHLAAIEGHLEIVEVLLKAGADVNAQDREGKTPADLAALLGHEDIAEVLQKAA
For the molecule B13, the binding result in assay [5] is “binds”.

B14: DARPin® protein comprising SEQ ID NO 222 (linked to a CD3-specific binding agent) (designed binder)
chain: GSDLGYKLLTAAIVGQDDEVRILLAAGADVNAKDQSGLTPLHLAAAYGHLEIVEVLLKAGADVNAKDKHGRTPLHLAALEGHLEIVEVLLKAGADVNAQDQFGITPADLAAAVGHEDIAEVLQKAA
Turning to B14, in assay [1], the Kd was determined as 7.15 nM.

B15: DARPin® protein comprising SEQ ID NO 227 (linked to a CD3-specific binding agent) (designed binder)
chain: B14 chain with Y6Q
Regarding B15, the Kd in assay [1] turned out to be 7.1 nM.

B16: DARPin® protein comprising SEQ ID NO 226 (linked to a CD3-specific binding agent) (designed binder)
chain: GSDLGKKLLSAAQSGQDDEVRILLGAGADVNAKDKWGHTPLHLAAVKGHLEIAEVLLKAGADVNAKDEWGSTPLHLAASQGHLEIVEVLLKAGADVNAKDKKGATPLHLAALVGHLEIVEVLLKAVADVNAQDKSGKTPADLAARAGHQDIAEVLQKAA
Regarding B16, the Kd in assay [1] stood at 13.8 nM.

B17: SEQ ID NO 157 (designed binder)
chain: GSDLGYKLLYAALFGQDDEVRILLAAGADVNAKDYFGKTPLHIAAYYGHLEIVEVLLKAGADVNAKDRYGITPLHLAALEGHLEIVEVLLKAGADVNAQDTDGITPADLAAWEGHEDIAEVLQKAA
For the molecule B17, in assay [5], the binding result was “binds”.

B18: DARPin® protein #27 (designed binder)
chain: MRGSHHHHHHGSDLGFKLLQAAHYGQDDEVRILLAAGADVNAKDEYGRTPLHHAALKGHLEIVEVLLKAGADVNAKDEFGTTPLHYAAIFGHLEIVEVLLKAGADVNAQDSSGFTPADLAALVGHEDIAEVLQKAA
For B18, the binding result is reported as “no binding” in assay [2] and “no binding (tested: 3.7 nM to 300 nM, or 250 nM single trace)” in assay [3]. For the same molecule, the Kd in assay [4] came out at 0.494 nM.

B19: DARPin® protein #25 (designed binder)
chain: MRGSHHHHHHGSDLGNKLLSAAIRGQDDEVRILLAAGADVNAKDIHGHTPLHAAAQFGHLEIVEVLLKAGADVNAKDFYGLTPLHLAAIFGHLEIVEVLLKAGADVNAQDEEGKTPADLAAVIGHEDIAEVLQKAA
As to B19, the binding result in assay [2] was “no binding”; in assay [3], “no binding (tested: 3.7 nM to 300 nM, or 250 nM single trace)”. Further, the Kd in assay [4] is 0.172 nM.

B20: SEQ ID NO 167 (designed binder)
chain: GSDLGKKLLQAARAGQLDEVRELLKAGADVNAKDSSGWTPLHLAAYTGHLEIVEVLLKAGADVNAKDQWGLTPLHLAALEGHLEIVEVLLKAGADVNAKDHTGKTPLHLAAQQGHLEIVEVLLKAGADVNAQDKSGKTPADLAARAGHQDIAEVLQKAA
Take B20: the binding result in assay [5] was “binds”.

B21: DARPin® protein comprising SEQ ID NO 230 (linked to a CD3-specific binding agent) (designed binder)
chain: GSDLGKKLLQAARAGQLDEVHELLKAGADVNAKDQHGKTPMHLAAQIGHLEIVEVLLKAGADVNAKDHIGWTPLHLAASVGHLEIVEVLLKAGADVNAKDQEGWTPLHVAAQLGHLEIVEVLLKAGADVNAQDKSGKTPADLAARAGHQDSAEVLQKAA
Take B21: the Kd in assay [1] was determined as 9.33 nM.

By Kd is commonly meant the concentration at which binding is half-saturated. The EC50 is the midpoint of the concentration-response curve. A higher EC50 goes with lower potency in that assay.

Source of the values: patent publication US20230243070A1 (Molecular Partners, published 2023).
